Measured values from US20240392000A1 (BIOGRAPH 55, published 2024).

B1: BS1M-4 (BS1 anti-CD38 arm CDR-H2 variant RVIPHLGTAN) (bispecific antibody, human IgG1, kappa)
heavy: not shown
VH: QVQLVQSGAEVKKPGSSVKVSCKASGGTFSSYAFSWVRQAPGQGLEWMGRVIPHLGTANSAQKFQGRVTITADKSTSTAYMELSSLRSEDTAVYYCARDDIAALGPFDYWGQGTLVTVSS
light: not shown
notes: BS1 format
B2: BS1M-7 (BS1 anti-CD38 arm CDR-H2 variant RVIPQLGTAN) (bispecific antibody, human IgG1, kappa)
heavy: not shown
VH: QVQLVQSGAEVKKPGSSVKVSCKASGGTFSSYAFSWVRQAPGQGLEWMGRVIPQLGTANSAQKFQGRVTITADKSTSTAYMELSSLRSEDTAVYYCARDDIAALGPFDYWGQGTLVTVSS
light: not shown
notes: BS1 format

Target: CD38 antigen (in solution, Octet analyte) (human, UniProt P28907 43-300, limits assumed)
Test: BLI (Octet Red), antibody captured on AHC sensor, antigen in solution, 1:1 model

Binder	Kd
B1	94.4 nM
B2	60.5 nM
